Laboratory results published in patent US20250341517A1 (published 2025).
Ends that are not written are not given here. FAM = carboxyfluorescein (FAM) fluorescent label

T1: C-reactive protein (UniProt P02741 19-224)
T1 construct: also called CRP
T1 sequence (looked up): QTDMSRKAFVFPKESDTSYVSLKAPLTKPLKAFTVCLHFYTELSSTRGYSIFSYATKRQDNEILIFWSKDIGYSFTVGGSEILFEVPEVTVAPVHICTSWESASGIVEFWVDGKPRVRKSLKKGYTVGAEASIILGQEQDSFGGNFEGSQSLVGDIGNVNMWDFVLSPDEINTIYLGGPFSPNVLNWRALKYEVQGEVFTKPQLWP

B1: H2 peptide (peptide)
peptide: VYYCAREPTGTGIYFDVWGK
modifications: not fully specified (N-terminus)
notes: Synthetic 20-mer homologous to the FR3 or FR4 region of the heavy chain; The label differs between experiments; also called H2 switching peptide; fourth peptide compound H2

Experiments:
Anti-CRP antibody(r) = target: T2, Anti-CRP antibody(r); assay: labelled peptide on antibody immobilised on microplate; antigen CRP
T2 construct: also called rabbit IgG (CRP)

Anti-HRP antibody(r) [1] = target: T3, Anti-HRP antibody(r); assay: labelled peptide on antibody immobilised on microplate; antigen HRP
T3 construct: Rabbit IgG, immobilised on a microplate; also called rabbit anti-HRP antibodies; anti-HRP antibody from a rabbit

Anti-hCG antibody(m) = target: T4, Anti-hCG antibody(m); assay: labelled peptide on antibody immobilised on microplate; antigen hCG
T4 construct: also called mouse IgG (hCG)

Anti-HRP antibody(r) [2] = target: T3, Anti-HRP antibody(r); assay: labelled peptide on immobilised rabbit anti-HRP antibody, papain cleavage
Anti-HBsAg antibody(g) = target: T5, Anti-HBsAg antibody(g); assay: labelled peptide on antibody immobilised on microplate; antigen HBsAg
T5 construct: also called anti-HBsAg antibodies from goats; goat IgG (HBsAg)

C-reactive protein = target: T1, C-reactive protein; assay: labelled peptide on protein immobilised on microplate; fluorescence at bottom
protein-A = protein-A (UniProt P38507 37-477); assay: as above
BSA = target: T6, BSA (UniProt P02769 25-607); assay: as above
T6 construct: also called bovine serum albumin

[3] = target: T7, anti-Inf-A binding antibody; assay: dissociation of labelled peptide from anti-Inf-A antibody on treatment with Inf-A; fluorescence
T7 construct: also called anti-Inf-A antibody; anti-inf A antibody

[4] = target: T8, anti-Inf-B binding antibody; assay: dissociation of labelled peptide from anti-Inf-B antibody on treatment with Inf-B; fluorescence
T8 construct: also called anti-Inf-B antibody

Anti-HRP antibody(r) [5] = target: T3, Anti-HRP antibody(r); assay: fluorescence in solution against HRP concentration (0.3 to 100 µM); peptide on immobilised rabbit anti-HRP antibody
Description: In this experiment, an anti-HRP antibody from a rabbit immobilized on a microplate was used as the binding antibody and HRP was used as the antigen.

[6] = target: T7, anti-Inf-A binding antibody; assay: SPR biosensor, anti-Inf-A antibody immobilised on Au substrate, BSA blocked
Description: Referring to FIG. 17A, anti-Inf-A and anti-Inf-B binding antibodies were immobilized on an Au substrate using an SPR biosensor, and the blank surface of the substrate was blocked with a BSA solution to treat Inf-A and Inf-B.

[7] = target: T8, anti-Inf-B binding antibody; assay: SPR biosensor, anti-Inf-B antibody immobilised on Au substrate, BSA blocked
H2 peptide = target: B1; assay: FRET on microplate: FAM-L1 immobilised, TAMRA-H2 incubated

T6 sequence (P02769 25-607 limits assumed): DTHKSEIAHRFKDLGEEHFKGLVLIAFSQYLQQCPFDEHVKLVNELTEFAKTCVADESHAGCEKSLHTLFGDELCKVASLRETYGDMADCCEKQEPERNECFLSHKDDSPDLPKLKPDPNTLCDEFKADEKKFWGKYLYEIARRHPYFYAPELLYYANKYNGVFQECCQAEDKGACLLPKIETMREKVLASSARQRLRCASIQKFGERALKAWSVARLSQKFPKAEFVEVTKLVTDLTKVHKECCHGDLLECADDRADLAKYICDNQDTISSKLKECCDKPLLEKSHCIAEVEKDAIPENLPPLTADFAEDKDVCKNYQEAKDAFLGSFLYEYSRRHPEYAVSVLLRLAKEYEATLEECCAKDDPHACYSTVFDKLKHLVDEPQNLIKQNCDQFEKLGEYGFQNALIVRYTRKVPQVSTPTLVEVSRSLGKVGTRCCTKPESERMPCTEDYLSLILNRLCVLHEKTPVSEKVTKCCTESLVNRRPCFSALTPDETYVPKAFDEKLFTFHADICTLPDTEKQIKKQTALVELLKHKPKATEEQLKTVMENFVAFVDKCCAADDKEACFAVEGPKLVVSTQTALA

Binder	change (%) of fluorescence at bottom (B) of microplate (Anti-CRP antibody(r)) [%]	change (%) of fluorescence in solution (S) (Anti-CRP antibody(r)) [%]	fluorescence intensity at bottom (B) of microplate after antigen binding (Anti-CRP antibody(r))	fluorescence intensity at bottom (B) of microplate before antigen binding (Anti-CRP antibody(r))	fluorescence intensity in solution (S) after antigen binding (Anti-CRP antibody(r))	fluorescence intensity in solution (S) before antigen binding (Anti-CRP antibody(r))	change (%) of fluorescence at bottom (B) of microplate (Anti-HRP antibody(r) [1]) [%]	change (%) of fluorescence in solution (S) (Anti-HRP antibody(r) [1]) [%]	fluorescence intensity at bottom (B) of microplate after antigen binding (Anti-HRP antibody(r) [1])	fluorescence intensity at bottom (B) of microplate before antigen binding (Anti-HRP antibody(r) [1])	fluorescence intensity in solution (S) after antigen binding (Anti-HRP antibody(r) [1])	fluorescence intensity in solution (S) before antigen binding (Anti-HRP antibody(r) [1])	change (%) of fluorescence at bottom (B) of microplate (Anti-hCG antibody(m)) [%]	change (%) of fluorescence in solution (S) (Anti-hCG antibody(m)) [%]	fluorescence intensity at bottom (B) of microplate after antigen binding (Anti-hCG antibody(m))	fluorescence intensity at bottom (B) of microplate before antigen binding (Anti-hCG antibody(m))	fluorescence intensity in solution (S) after antigen binding (Anti-hCG antibody(m))	fluorescence intensity in solution (S) before antigen binding (Anti-hCG antibody(m))	decrease of fluorescence intensity at the bottom of the microplate after papain treatment (Anti-HRP antibody(r) [2]) [%]	increase of fluorescence intensity in the solution after papain treatment (Anti-HRP antibody(r) [2]) [%]	also measured
{FAM}-VYYCFQGSHVPFTK (Synthetic 14-mer homologous to the FR3 or FR4 region of the light chain; also called L2 switching peptide; second peptide compound L2) [L2 peptide]	-44.9	883	11200	20400	32200	3270	-74.5	597	3210	12600	16100	2320	-90.7	456	3070	33200	9400	1690	72.5	2450	change (%) of fluorescence at bottom (B) of microplate (Anti-HBsAg antibody(g)): -64.8%; change (%) of fluorescence in solution (S) (Anti-HBsAg antibody(g)): 574%; fluorescence intensity at bottom (B) of microplate after antigen binding (Anti-HBsAg antibody(g)): 9860; fluorescence intensity at bottom (B) of microplate before antigen binding (Anti-HBsAg antibody(g)): 28000; fluorescence intensity in solution (S) after antigen binding (Anti-HBsAg antibody(g)): 15400; fluorescence intensity in solution (S) before antigen binding (Anti-HBsAg antibody(g)): 2280; binding result (C-reactive protein): no binding; binding result (protein-A): no binding; binding result (BSA): no binding; relative change in fluorescence signal [3]: 225%; relative change in fluorescence signal [4]: 151%; Kd (Anti-HRP antibody(r) [5]): 1.48 µM
B1	-39.5	677	22200	22200	16300	2100	-85.2	698	1810	122000	18100	2270	-88.5	416	23300	23300	8540	1650	58.7	2360	change (%) of fluorescence at bottom (B) of microplate (Anti-HBsAg antibody(g)): -36.1%; change (%) of fluorescence in solution (S) (Anti-HBsAg antibody(g)): 412%; fluorescence intensity at bottom (B) of microplate after antigen binding (Anti-HBsAg antibody(g)): 18800; fluorescence intensity at bottom (B) of microplate before antigen binding (Anti-HBsAg antibody(g)): 29400; fluorescence intensity in solution (S) after antigen binding (Anti-HBsAg antibody(g)): 9140; fluorescence intensity in solution (S) before antigen binding (Anti-HBsAg antibody(g)): 1780; Kd [6]: 37 µM; Kd [7]: 56 µM; binding result (C-reactive protein): no binding; binding result (protein-A): no binding; binding result (BSA): no binding; relative change in fluorescence signal [3]: 352%; relative change in fluorescence signal [4]: 199%; Kd (Anti-HRP antibody(r) [5]): 3.11 µM
TYLEWYPQKPGQSPKLLIYK (not fully specified (N-terminus), Synthetic 20-mer homologous to the FR2 region of the light chain; The label differs between experiments; also called L1 switching peptide; first peptide compound L1) [L1 peptide]	-48.6	778	3460	6720	6500	741	-87.3	357	1990	15600	12300	2690	-61.6	187	1780	4630	3580	1250	84.8	1030	binding result (H2 peptide): binds; change (%) of fluorescence at bottom (B) of microplate (Anti-HBsAg antibody(g)): -51.3%; change (%) of fluorescence in solution (S) (Anti-HBsAg antibody(g)): 638%; fluorescence intensity at bottom (B) of microplate after antigen binding (Anti-HBsAg antibody(g)): 5390; fluorescence intensity at bottom (B) of microplate before antigen binding (Anti-HBsAg antibody(g)): 11100; fluorescence intensity in solution (S) after antigen binding (Anti-HBsAg antibody(g)): 20500; fluorescence intensity in solution (S) before antigen binding (Anti-HBsAg antibody(g)): 2780; Kd [6]: 14 µM; Kd [7]: 14 µM; binding result (C-reactive protein): no binding; binding result (protein-A): no binding; binding result (BSA): no binding; relative change in fluorescence signal [3]: 176%; relative change in fluorescence signal [4]: 180%; Kd (Anti-HRP antibody(r) [5]): 3.29 µM
